From US20200239555A1 (STATEN BIOTECHNOLOGY B V, published 2020)
“And” between values parts separate entries of the source, which are not always exact repeats. Equal values may be shown once.

How the values were obtained:
native human ApoC3 [1] = molecular target: T1, native human ApoC3 (human, UniProt P02656 21-99); assay: SPR, IgG1 over ApoC3 on CM5 chip, pH 5.5
T1 construct: also called nhuApoC3; native huApoC3
Protocol: (§1) Based on the results in Example 1, test scFv-Fc antibodies were generated as human IgG₁ antibodies. An SPR-based assay was employed, in which human ApoC3 protein was immobilized on a CM5 chip, and the binding kinetics of test antibodies to the coated chip were measured at both pH 7.4 and pH 5.5. Briefly, a solution of 50 μg/ml of native human ApoC3 in 10 mM acetate buffer at pH 4.5 was prepared and injected until the surface density reached approximately 500 RU. 60 μl of each test antibody was diluted in HBS-EP buffer (GE, cat. nr. BR-1008-26; 0.010 M HEPES, 0.150M NaCl, 3 mM EDTA, 0.05% (v/v) surfactant P20, pH 7.4), and was injected at a concentration as described in Table 9. The test antibodies were passed through the flow cells at a flow rate of 30 μl/min, followed by an off-rate wash at pH 7.4 or pH 5.5 for 5 min. The resulting sensorgrams were analyzed using the BIAevaluation 4.1 software applying the Langmuir 1:1 binding model to derive binding kinetics. Data was zero adjusted and the reference cell sensorgrams were subtracted.

native human ApoC3 [2] = molecular target: T1, native human ApoC3; assay: SPR, IgG1 over ApoC3 on CM5 chip, pH 7.4
Protocol: as §1

[3] = molecular target: T2, biotinylated native human ApoC3 (human, UniProt P02656 21-99, biotinylated (site not stated)); assay: SPR, IgG1 over biotinylated ApoC3 on SA chip
T2 construct: also called biotinylated human ApoC3
T2 sequence (P02656 21-99): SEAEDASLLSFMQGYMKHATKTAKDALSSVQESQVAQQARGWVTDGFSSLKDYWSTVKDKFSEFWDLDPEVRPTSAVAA
Procedure, shortened: (§2)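 Biotinylated native human ApoC3 was captured on a streptavidin chip (~500 RU), and IgG1 at 1-50 nM was injected in HBS-EP at pH 7.4, or at pH 5.5 with 10 mM citrate added. Dissociation was followed for 5 min. Double-referenced sensorgrams were fit to a 1:1 Langmuir model, and fits were considered not applicable when kd was below 1×10⁻⁶ 1/s.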

[4] = molecular target: T2, biotinylated native human ApoC3; assay: SPR, IgG1 over biotinylated ApoC3 on SA chip, pH 5.5
Procedure, shortened: as §2

[5] = molecular target: T2, biotinylated native human ApoC3; assay: SPR, IgG1 over biotinylated ApoC3 on SA chip, pH 7.4
Procedure, shortened: as §2

[6] = molecular target: T2, biotinylated native human ApoC3; assay: SPR, IgG1 over biotinylated ApoC3 on SA chip, pH 7.4; pH 7.4
Protocol: Biotinylated native human ApoC3 was captured on a streptavidin coated SPR chip (GE Healthcare, cat. nr. BR100032) at pH 7.4, in accordance with the method provided by Biacore, by injection of 20 μl 10 μg/ml biotinylated native human ApoC3 reaching the surface density of approximately 500 RU. 60 μL of test antibody in 1-50 nM range diluted in HBS-EP buffer (GE, cat # BR-1008-26; 0.010 M HEPES, 0.150M NaCl, 3 mM EDTA, 0.05% (v/v) surfactant P20, pH 7.4) was injected and passed through the flow cells at a flow rate of 30 μl/min, followed by an off-rate wash at pH7.4 for 5 min. After the dissociation, the flow cell surfaces were regenerated by injecting 10 μl of 10 mM NaOH/1 M NaCl and 10 μl of 10 mM glycine at pH1.5. The assay was repeated at pH5.5 using the same general protocol, where the running and sample dilution buffer was replaced by a HBS-EP buffer supplemented with citrate buffer to 10 mM final concentration and pH adjusted to 5.5.
The resulting sensorgrams were analyzed using the BIAevaluation 4.1 software using Langmuir 1:1 binding model to derive binding kinetics. Data was zero adjusted and the reference cell sensorgrams were subtracted. Sensorgrams were double referenced to no-analyte blank assay. Fitted parameters were considered not applicable if off-rate values were below the equipment's detection limit of kd: 1×10⁻⁶ 1/s.

T1 sequence (P02656 21-99): as above

koff (native human ApoC3 [1]): 0.000374 s⁻¹ | kon (native human ApoC3 [1]): 366000 M⁻¹ s⁻¹ | koff (native human ApoC3 [2]): 1.38e-05 s⁻¹ | kon (native human ApoC3 [2]): 393000 M⁻¹ s⁻¹ | KD pH5.5/KD pH7.4 [3]: 27.6 | Ka [4]: 2.12e+09 M⁻¹ | Kd [4]: 0.472 nM and 0.47 nM | koff [4]: 0.000143 s⁻¹ | kon [4]: 302000 M⁻¹ s⁻¹ | Kd [5]: 0.0171 nM and 0.02 nM | koff [5]: 1.12e-05 s⁻¹ | kon [5]: 656000 M⁻¹ s⁻¹ | Ka [6]: 5.84e+10 M⁻¹
B1: 5E5VH12_VLWT human IgG1 (antibody, V domains shown)
VH: QLQLVESGGGLVQPGGSLRLSCAASGFTFGTYSMRWVRQVPRKALEWVSSISTDGGGTAYRDSVKGRFTISRDNAKNTLYLQMNNLKPEDTAIYYCVIHGYSDWGQGTQVTVSS
VL: ATMLTQSPGSLSVVPGESASISCKTSQGLVHSDGKTYFYWFLQKPGQSPQQLIYQVSNRASGVPDRFTGSGSGTDFTLKISGVKAEDAGVYYCAQGTYYPHTFGSGTRLEIK
